Reference: PMC7618375, “Structure and Methyl-lysine Binding Selectivity of the HUSH Complex Subunit MPP8” (Journal of molecular biology, 2024)
Blank lines part the entries; values can stand above or below the binder they belong to. No end group written: not given here. Me2 = dimethyl on the lysine side-chain amine

Columns and labels:
[1] = biological target: T1, MPP8 chromodomain (CD, residues 55-116) (human, UniProt Q99549 55-116); test: ITC; 750 uM peptide in the syringe titrated into 50 uM MPP8 CD in the cell; 50 mM HEPES pH 7.4, 0.1 M NaCl, 0.5 mM TCEP, 25 °C; single-site model; conditions: both partners purified
T1 construct: MPP8 (M-phase phosphoprotein 8), human, chromodomain, residues 55-116, UniProt Q99549; Cloned in pET15b with a TEV site (ENLYFQG) in place of the thrombin site; also called MPP8 CD; M-phase phosphoprotein 8 chromodomain; source: E. coli BL21 (DE3), purified (Ni-NTA, Mono Q, Superdex 75 SEC)
T1 sequence (looked up): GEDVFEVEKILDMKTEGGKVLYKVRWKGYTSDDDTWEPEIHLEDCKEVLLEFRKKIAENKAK

[2] = biological target: the molecule itself; test: crystal structure; MPP8 CTD, X-ray, 3.04 Å, eight chains in the asymmetric unit; crystals at 18 °C, PEG 4000/1,2,6-hexanetriol, pH 8.5

Kd [1]: 1700 nM
Binder: TKQTARK(Me2)STGGK [Histone H3 peptide dimethylated at lysine 9]

B1: MPP8 C-terminal domain (CTD, residues 547-860) (domain or fragment, human, UniProt Q99549 547-860, looked up)
chain: DFQKHLDGKDENFAATDAIPSNVLRDAVKNGDYITVKVALNSNEEYNLDQEDSSGMTLVMLAAAGGQDDLLRLLITKGAKVNGRQKNGTTALIHAAEKNFLTTVAILLEAGAFVNVQQSNGETALMKACKRGNSDIVRLVIECGADCNILSKHQNSALHFAKQSNNVLVYDLLKNHLETLSRVAEETIKDYFEARLALLEPVFPIACHRLCEGPDFSTDFNYKPPQNIPEGSGILLFIFHANFLGKEVIARLCGPCSVQAVVLNDKFQLPVFLDSHFVYSFSPVAGPNKLFIRLTEAPSAKVKLLIGAYRVQLQ
notes: MPP8 (M-phase phosphoprotein 8), human, C-terminal domain (ankyrin repeats and PINIT-like domain), residues 547-860, UniProt Q99549; residues 547-562 disordered in the crystal, model spans 563-860; also called MPP8 CTD; source: E. coli BL21 (DE3), purified (Ni-NTA, thrombin cleavage, Resource Q, Superdex 200 SEC); not shown: His6, N-terminal, cleaved
stoichiometry N [2]: 2
